According to patent publication US20230212218A1 (NAVIGO PROTEINS, published 2023):
Numbering of substitutions follows the chain as printed.

Experiments:
hIgG1-Fc [1] = biological target: T1, hIgG1-Fc (human, UniProt P01857-1 100-330 = IgG part, limits assumed); experiment: SPR (Biacore) on hIgG1-Fc, one concentration, 1 µM
T1 construct: domain: Fc; treated as the same molecule; also called IgG1 Fc region; hIgG-Fc
Excerpt: Analysis via label-free interaction assays using SPR spectroscopy (BIAcore). Change in refractive index measured in real time and plotted as response or resonance unit [RU] versus time [sec]. […] Solid line = Ig binding protein SEQ ID NO: 41; dotted line = Ig binding protein SEQ ID NO: 42.
A CM5 sensor chip (GE Healthcare) was equilibrated with SPR running buffer. Surface-exposed carboxylic groups were activated by passing a mixture of EDC and NHS to yield reactive ester groups. 700-1500 RU on-ligand were immobilized on a flow cell, off-ligand was immobilized on another flow cell. Injection of ethanolamine after ligand immobilization removes non-covalently bound Ig binding protein. Upon ligand binding, protein analyte was accumulated on the surface increasing the refractive index. This change in the refractive index was measured in real time and plotted as response or resonance units (RU) versus time. The analytes were applied to the chip in serial dilutions with a suitable flow rate (µl/min). After each run, the chip surface was regenerated with regeneration buffer and equilibrated with running buffer. The control samples were applied to the matrix. Regeneration and re-equilibration were performed as previously mentioned. […] Evaluated dissociation constants (KD) were standardized against off-target and KD values of different artificial Ig binding proteins for hIgG1-Fc (FIG. 2 and TABLE 6). […]

hIgG1-Fc [2] = biological target: T1, hIgG1-Fc; experiment: SPR, Biacore 3000
Excerpt: (§1) A CM5 sensor chip (GE Healthcare) was equilibrated with SPR running buffer. Surface-exposed carboxylic groups were activated by passing a mixture of EDC and NHS to yield reactive ester groups. 700-1500 RU on-ligand were immobilized on a flow cell, off-ligand was immobilized on another flow cell. Injection of ethanolamine after ligand immobilization removes non-covalently bound Ig binding protein. Upon ligand binding, protein analyte was accumulated on the surface increasing the refractive index. This change in the refractive index was measured in real time and plotted as response or resonance units (RU) versus time. The analytes were applied to the chip in serial dilutions with a suitable flow rate (µl/min). After each run, the chip surface was regenerated with regeneration buffer and equilibrated with running buffer. The control samples were applied to the matrix. Regeneration and re-equilibration were performed as previously mentioned. Binding studies were carried out by the use of the Biacore® 3000 (GE Healthcare) at 25° C.; data evaluation was operated via the BIAevaluation 3.0 software, provided by the manufacturer, by the use of the Langmuir 1:1 model (RI=0). Evaluated dissociation constants (KD) were standardized against off-target and KD values of different artificial Ig binding proteins for hIgG1-Fc (FIG. 2 and TABLE 6). For example, the KD of SEQ ID NO: 41 (CID208846) and SEQ ID NO: 42 (CID208847) is in single-digit µM range vs. hIgG1-Fc.

hIgG1-Fc [3] = biological target: T1, hIgG1-Fc; experiment: SPR, Biacore 3000, 25 C, Langmuir 1:1 model
Excerpt: as §1

B1: SEQ ID NO: 41 (CID208846) (designed binder)
chain: ADNKFSQSANLLAEAKKLNDAQGGITEEQRNGFIQSLKDDIGASPMNKEQQNAFYEILHLPK
binding result (hIgG1-Fc [1]): binds

B2: CID-213276 (designed binder)
chain: ADNKFSQSANLLAEAKKLNDAQGGITEEQRNGFIQSLKDDAKANPEANKEQQNAFYEILHLPK
notes: not tied in the text
binding result (hIgG1-Fc [2]): binds

B3: CID210259 (designed binder)
chain: B2 chain with A43R, E46M, A47T
Kd (hIgG1-Fc [3]): 507 nM

B4: CID213197 (designed binder)
chain: B2 chain with I25L, A41T, K42A, E46T
Kd (hIgG1-Fc [3]): 84 nM

B5: CID213333 (designed binder)
chain: B2 chain with A43T, E46G, A47N
Kd (hIgG1-Fc [3]): 43 nM

B6: SEQ ID NO: 42 (CID208847) (designed binder)
chain: B2 chain with I25L, A41V, K42P, N44G, P45V, E46A, A47N
binding result (hIgG1-Fc [1]): binds

B7: CID213246 (designed binder)
chain: B1 chain with I25L, I41V, G42R, A43R, S44V, P45G, M46S
Kd (hIgG1-Fc [3]): 248 nM

B8: CID213191 (designed binder)
chain: B1 chain with I25L, I41G, G42T, A43E, S44G, P45V, M46H
Kd (hIgG1-Fc [3]): 132 nM

B9: CID213215 (designed binder)
chain: B1 chain with I25L, I41V, G42R, A43K, S44L, P45G, M46P
Kd (hIgG1-Fc [3]): 190 nM

B10: CID213224 (designed binder)
chain: ADNKFSQSANLLAEAKKLNDAQNGLTEEQRNGFIQSLKDDVRTNGANKEQQNAFYEILHLPK
Kd (hIgG1-Fc [3]): 220 nM

B11: CID213278 (designed binder)
chain: B1 chain with I25L, I41M, G42N, A43V, S44G, P45K, M46H
Kd (hIgG1-Fc [3]): 199 nM

B12: CID-210234 (designed binder)
chain: B10 chain with N23G, V41A, R42S, T43E, N44K
notes: not tied in the text
binding result (hIgG1-Fc [2]): binds

B13: CID-213213 (designed binder)
chain: B1 chain with I25L, I41H, G42T, A43P, S44T, P45R, M46G
notes: not tied in the text
binding result (hIgG1-Fc [2]): binds

B14: CID-210240 (designed binder)
chain: ADNKFSQSANLLAEAKKLNDAQGGLTEEQRNGFIQSLKDDPVLRGKPNKEQQNAFYEILHLPK
notes: not tied in the text
binding result (hIgG1-Fc [2]): binds

B15: CID213235 (designed binder)
chain: ADNKFSQSANLLAEAKKLSDAQRGLTEEQRNGFIQSLKDDTKRHPKMNKEQQNAFYEILHLPK
Kd (hIgG1-Fc [3]): 257 nM

B16: CID210279 (designed binder)
chain: ADNKFSQSANLLAEAKKLNDAQGGLTEEQRNGFIQSLKDDTHPEDRQHNKEQQNAFYEILHLPK
Kd (hIgG1-Fc [3]): 103 nM
